Assay results from patent US20120238493A1 (INDIANA UNIVERSITY RESEARCH AND TECHNOLOGY, published 2012).
Like-named read-outs stand apart in the source and are kept apart here. *1 amine or outer side, *2 acyl side, *3 side chain or, on linkers, in order; H or OH if unused. Where no end group is shown, it is not given here. Side-chain parts run from the residue outwards. [ ]: non-standard residue; d: D form. The star is where a group is joined. γGlu = O=C(O)[C@H](CCC(=O)[*:2])N[*:1]; Palmitoyl = CCCCCCCCCCCCCCCC(=O)*; Aib = CC(C)(N)C(=O)O

Key:
Assay in all cases: cell-based or functional assay
[1] = biological target: T1, GLP-1 receptor (UniProt P43220 24-463, limits assumed)
[2] = biological target: T2, GIP receptor (UniProt P48546 22-466, limits assumed)
T2 sequence (looked up): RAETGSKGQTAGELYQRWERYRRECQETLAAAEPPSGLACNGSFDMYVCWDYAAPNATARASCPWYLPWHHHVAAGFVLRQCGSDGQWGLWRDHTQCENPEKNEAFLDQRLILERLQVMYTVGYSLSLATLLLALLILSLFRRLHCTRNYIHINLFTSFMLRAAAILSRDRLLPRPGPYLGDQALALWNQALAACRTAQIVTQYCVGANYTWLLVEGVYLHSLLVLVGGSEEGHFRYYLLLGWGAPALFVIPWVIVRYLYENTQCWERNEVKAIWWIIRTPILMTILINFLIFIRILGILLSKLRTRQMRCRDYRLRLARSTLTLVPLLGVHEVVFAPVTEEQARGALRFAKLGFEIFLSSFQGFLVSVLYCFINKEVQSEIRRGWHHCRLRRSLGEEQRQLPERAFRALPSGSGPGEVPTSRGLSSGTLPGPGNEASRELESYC

[3] = biological target: T3, glucagon receptor (UniProt P47871 26-477, limits assumed)
T3 sequence (P47871 26-477 limits assumed): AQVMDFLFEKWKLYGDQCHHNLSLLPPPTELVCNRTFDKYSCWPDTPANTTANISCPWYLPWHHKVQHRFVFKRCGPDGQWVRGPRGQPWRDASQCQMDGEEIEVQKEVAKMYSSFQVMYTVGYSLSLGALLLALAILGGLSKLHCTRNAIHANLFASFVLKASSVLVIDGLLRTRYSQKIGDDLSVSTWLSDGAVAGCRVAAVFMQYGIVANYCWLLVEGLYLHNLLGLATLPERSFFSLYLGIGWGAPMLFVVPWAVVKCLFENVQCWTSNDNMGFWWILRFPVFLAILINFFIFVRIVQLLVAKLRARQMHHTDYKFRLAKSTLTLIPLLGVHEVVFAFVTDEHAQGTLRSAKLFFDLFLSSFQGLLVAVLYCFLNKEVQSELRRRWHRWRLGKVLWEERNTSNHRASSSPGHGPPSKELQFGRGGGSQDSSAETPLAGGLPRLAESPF

[4] = biological target: T1, GLP-1 receptor; remark: listed apart in the source
[5] = biological target: T2, GIP receptor; remark: listed apart in the source
[6] = biological target: T3, glucagon receptor; remark: listed apart in the source
[7] = biological target: T1, GLP-1 receptor; remark: listed apart in the source
[8] = biological target: T2, GIP receptor; remark: listed apart in the source
[9] = biological target: T3, glucagon receptor; remark: listed apart in the source
[10] = biological target: T1, GLP-1 receptor; remark: listed apart in the source
[11] = biological target: T2, GIP receptor; remark: listed apart in the source
[12] = biological target: T3, glucagon receptor; remark: listed apart in the source
[13] = biological target: T1, GLP-1 receptor; remark: listed apart in the source
[14] = biological target: T2, GIP receptor; remark: listed apart in the source
[15] = biological target: T3, glucagon receptor; remark: listed apart in the source

H[Aib]EGTFTSDYSKYLDERAAQDFVQWLLDGGPSSGAPPPSK([γGlu-γGlu-Palmitoyl])G-NH2 [peptide of SEQ ID NO: 171]
EC50 (cAMP reporter) [1]: 0.005 nM
EC50 (cAMP reporter) [2]: 0.038 nM
EC50 (cAMP reporter) [3]: 0.455 nM

B1: Analog No. 63: Aib2, E3, K10acyl, E16, L27, D28, G29 + CEX (SEQ ID NO: 39) (peptide)
peptide: H[Aib]EGTFTSDK([γGlu-Palmitoyl])SKYLDERAAQDFVQWLLDGGPSSGAPPPS-NH2
modifications: N-terminus assumed
SMILES: CCCCCCCCCCCCCCCC(=O)N[C@@H](CCC(=O)NCCCC[C@H](NC(=O)[C@H](CC(=O)O)NC(=O)[C@H](CO)NC(=O)[C@@H](NC(=O)[C@H](Cc1ccccc1)NC(=O)[C@@H](NC(=O)CNC(=O)[C@H](CCC(=O)O)NC(=O)C(C)(C)NC(=O)[C@@H](N)Cc1c[nH]cn1)[C@@H](C)O)[C@@H](C)O)C(=O)N[C@@H](CO)C(=O)N[C@@H](CCCCN)C(=O)N[C@@H](Cc1ccc(O)cc1)C(=O)N[C@@H](CC(C)C)C(=O)N[C@@H](CC(=O)O)C(=O)N[C@@H](CCC(=O)O)C(=O)N[C@@H](CCCNC(=N)N)C(=O)N[C@@H](C)C(=O)N[C@@H](C)C(=O)N[C@@H](CCC(N)=O)C(=O)N[C@@H](CC(=O)O)C(=O)N[C@@H](Cc1ccccc1)C(=O)N[C@H](C(=O)N[C@@H](CCC(N)=O)C(=O)N[C@@H](Cc1c[nH]c2ccccc12)C(=O)N[C@@H](CC(C)C)C(=O)N[C@@H](CC(C)C)C(=O)N[C@@H](CC(=O)O)C(=O)NCC(=O)NCC(=O)N1CCC[C@H]1C(=O)N[C@@H](CO)C(=O)N[C@@H](CO)C(=O)NCC(=O)N[C@@H](C)C(=O)N1CCC[C@H]1C(=O)N1CCC[C@H]1C(=O)N1CCC[C@H]1C(=O)N[C@@H](CO)C(N)=O)C(C)C)C(=O)O
activity (cAMP reporter), column GLP [4]: 0.008
activity (cAMP reporter), column GIP [5]: 0.026
activity (cAMP reporter), column Glu [6]: 1.28
EC50 (cAMP reporter) [7]: 0.008 nM
EC50 (cAMP reporter) [8]: 0.026 nM
EC50 (cAMP reporter) [9]: 1.28 nM

H[Aib]QGTFTSDYSKYLD[Aib]RRAQDFVQWLMNT-NH2 (not fully specified (residue 12)) [Glucagon Aib2, K12(rErEC16), Aib16, amide (SEQ ID NO: 45)]
EC50 (cAMP reporter) [10]: 0.0205 nM
EC50 (cAMP reporter) [11]: 0.651 nM
EC50 (cAMP reporter) [12]: 0.0425 nM

B2: Glucagon Aib2, Aib16, amide (SEQ ID NO: 42) (peptide)
peptide: H[Aib]QGTFTSDYSKYLD[Aib]RRAQDFVQWLMNT-NH2
modifications: N-terminus assumed
SMILES: CSCC[C@H](NC(=O)[C@H](CC(C)C)NC(=O)[C@H](Cc1c[nH]c2ccccc12)NC(=O)[C@H](CCC(N)=O)NC(=O)[C@@H](NC(=O)[C@H](Cc1ccccc1)NC(=O)[C@H](CC(=O)O)NC(=O)[C@H](CCC(N)=O)NC(=O)[C@H](C)NC(=O)[C@H](CCCNC(=N)N)NC(=O)[C@H](CCCNC(=N)N)NC(=O)C(C)(C)NC(=O)[C@H](CC(=O)O)NC(=O)[C@H](CC(C)C)NC(=O)[C@H](Cc1ccc(O)cc1)NC(=O)[C@H](CCCCN)NC(=O)[C@H](CO)NC(=O)[C@H](Cc1ccc(O)cc1)NC(=O)[C@H](CC(=O)O)NC(=O)[C@H](CO)NC(=O)[C@@H](NC(=O)[C@H](Cc1ccccc1)NC(=O)[C@@H](NC(=O)CNC(=O)[C@H](CCC(N)=O)NC(=O)C(C)(C)NC(=O)[C@@H](N)Cc1c[nH]cn1)[C@@H](C)O)[C@@H](C)O)C(C)C)C(=O)N[C@@H](CC(N)=O)C(=O)N[C@H](C(N)=O)[C@@H](C)O
EC50 (cAMP reporter) [10]: 0.437 nM
EC50 (cAMP reporter) [11]: 104 nM
EC50 (cAMP reporter) [12]: 0.309 nM

H[Aib]EGTFTSDK([γGlu-C16])SKYLDERRA[Aib]EFVQWLLDGGPSSGAPPPS-NH2 [Analog No. 62: Aib2, E3, K10acyl, E16, Aib20, E21, L27, D28, G29 + CEX (SEQ ID NO: 38)]
activity (cAMP reporter), column GLP [4]: 0.008
activity (cAMP reporter), column GIP [5]: 0.012
activity (cAMP reporter), column Glu [6]: 0.127
EC50 (cAMP reporter) [7]: 0.008 nM
EC50 (cAMP reporter) [8]: 0.012 nM
EC50 (cAMP reporter) [9]: 0.127 nM

B3: dual acylated peptide of SEQ ID NO: 163 (peptide)
peptide: H[Aib]QGTFTSDK([γGlu-Palmitoyl])SKYLDERAAQDFVQWLLDGGPSSGAPPPSK([γGlu-Palmitoyl])-NH2
modifications: N-terminus assumed
SMILES: CCCCCCCCCCCCCCCC(=O)N[C@@H](CCC(=O)NCCCC[C@H](NC(=O)[C@H](CO)NC(=O)[C@@H]1CCCN1C(=O)[C@@H]1CCCN1C(=O)[C@@H]1CCCN1C(=O)[C@H](C)NC(=O)CNC(=O)[C@H](CO)NC(=O)[C@H](CO)NC(=O)[C@@H]1CCCN1C(=O)CNC(=O)CNC(=O)[C@H](CC(=O)O)NC(=O)[C@H](CC(C)C)NC(=O)[C@H](CC(C)C)NC(=O)[C@H](Cc1c[nH]c2ccccc12)NC(=O)[C@H](CCC(N)=O)NC(=O)[C@@H](NC(=O)[C@H](Cc1ccccc1)NC(=O)[C@H](CC(=O)O)NC(=O)[C@H](CCC(N)=O)NC(=O)[C@H](C)NC(=O)[C@H](C)NC(=O)[C@H](CCCNC(=N)N)NC(=O)[C@H](CCC(=O)O)NC(=O)[C@H](CC(=O)O)NC(=O)[C@H](CC(C)C)NC(=O)[C@H](Cc1ccc(O)cc1)NC(=O)[C@H](CCCCN)NC(=O)[C@H](CO)NC(=O)[C@H](CCCCNC(=O)CC[C@H](NC(=O)CCCCCCCCCCCCCCC)C(=O)O)NC(=O)[C@H](CC(=O)O)NC(=O)[C@H](CO)NC(=O)[C@@H](NC(=O)[C@H](Cc1ccccc1)NC(=O)[C@@H](NC(=O)CNC(=O)[C@H](CCC(N)=O)NC(=O)C(C)(C)NC(=O)[C@@H](N)Cc1c[nH]cn1)[C@@H](C)O)[C@@H](C)O)C(C)C)C(N)=O)C(=O)O
EC50 (cAMP, nmole) [13]: 0.011 nmol
EC50 (cAMP, nmole) [14]: 0.024 nmol
EC50 (cAMP, nmole) [15]: 0.018 nmol

B4: Analog No. 61: Aib2, K10acyl, E16, Aib20, E21, L27, D28, G29 + CEX (SEQ ID NO: 37) (peptide)
peptide: H[Aib]QGTFTSDK([γGlu-Palmitoyl])SKYLDERRA[Aib]EFVQWLLDGGPSSGAPPPS-NH2
modifications: N-terminus assumed
SMILES: CCCCCCCCCCCCCCCC(=O)N[C@@H](CCC(=O)NCCCC[C@H](NC(=O)[C@H](CC(=O)O)NC(=O)[C@H](CO)NC(=O)[C@@H](NC(=O)[C@H](Cc1ccccc1)NC(=O)[C@@H](NC(=O)CNC(=O)[C@H](CCC(N)=O)NC(=O)C(C)(C)NC(=O)[C@@H](N)Cc1c[nH]cn1)[C@@H](C)O)[C@@H](C)O)C(=O)N[C@@H](CO)C(=O)N[C@@H](CCCCN)C(=O)N[C@@H](Cc1ccc(O)cc1)C(=O)N[C@@H](CC(C)C)C(=O)N[C@@H](CC(=O)O)C(=O)N[C@@H](CCC(=O)O)C(=O)N[C@@H](CCCNC(=N)N)C(=O)N[C@@H](CCCNC(=N)N)C(=O)N[C@@H](C)C(=O)NC(C)(C)C(=O)N[C@@H](CCC(=O)O)C(=O)N[C@@H](Cc1ccccc1)C(=O)N[C@H](C(=O)N[C@@H](CCC(N)=O)C(=O)N[C@@H](Cc1c[nH]c2ccccc12)C(=O)N[C@@H](CC(C)C)C(=O)N[C@@H](CC(C)C)C(=O)N[C@@H](CC(=O)O)C(=O)NCC(=O)NCC(=O)N1CCC[C@H]1C(=O)N[C@@H](CO)C(=O)N[C@@H](CO)C(=O)NCC(=O)N[C@@H](C)C(=O)N1CCC[C@H]1C(=O)N1CCC[C@H]1C(=O)N1CCC[C@H]1C(=O)N[C@@H](CO)C(N)=O)C(C)C)C(=O)O
activity (cAMP reporter), column GLP [4]: 0.006
activity (cAMP reporter), column GIP [5]: 0.003
activity (cAMP reporter), column Glu [6]: 0.004
EC50 (cAMP reporter) [7]: 0.006 nM
EC50 (cAMP reporter) [8]: 0.002 nM
EC50 (cAMP reporter) [9]: 0.004 nM

H[Aib]QGTFTSKYSKYLD[Aib]RRAQDFVQWLMNT-NH2 (not fully specified (residue 9)) [Glucagon Aib2, K9(rErEC16), Aib16, amide (SEQ ID NO: 43)]
EC50 (cAMP reporter) [10]: 0.232 nM
EC50 (cAMP reporter) [11]: 15.1 nM
EC50 (cAMP reporter) [12]: 1.15 nM
